B1: EHEE_rd2_0191 (parent)
chain: TTEYTFTDDEEARRAIEELKKRGLTFRYEKHGTTWRVRVD
B2: HEEH_KT_rd6_0007 (parent)
chain: SIEEEIKKAEEAKEKGKTFIHGDFVATTEELLDELLKRLRKKL

Variants of: B1
Experiment: folding stability dG (cDNA display proteolysis); higher = more stable
Details: PBS, room temperature

Compared with TTPYTFTDDEEARRAIEELKKRGLTFRYEKHGTTWRVRVD [E3P], TTVYTFTDDEEARRAIEELKKRGLTFRYEKHGTTWRVRVD [E3V] is higher in “folding stability dG” value: 0.266 kcal/mol for the first, 2.56 kcal/mol for the second.

Compared with TTGYTFTDDEEARRAIEELKKRGLTFRYEKHGTTWRVRVD [E3G], TTYYTFTDDEEARRAIEELKKRGLTFRYEKHGTTWRVRVD [E3Y] is higher in “folding stability dG” value: 0.724 kcal/mol for the first, 2.62 kcal/mol for the second.

First: TTWYTFTDDEEARRAIEELKKRGLTFRYEKHGTTWRVRVD [E3W]
Second: TTSYTFTDDEEARRAIEELKKRGLTFRYEKHGTTWRVRVD [E3S]
The “folding stability dG” value of the first is higher: 3.02 kcal/mol for the first, 1.55 kcal/mol for the second.

Compared with TTKYTFTDDEEARRAIEELKKRGLTFRYEKHGTTWRVRVD [E3K], TTNYTFTDDEEARRAIEELKKRGLTFRYEKHGTTWRVRVD [E3N] is higher in “folding stability dG” value: 0.77 kcal/mol for the first, 1.39 kcal/mol for the second.

First: TTDYTFTDDEEARRAIEELKKRGLTFRYEKHGTTWRVRVD [E3D]
Second: TTRYTFTDDEEARRAIEELKKRGLTFRYEKHGTTWRVRVD [E3R]
The “folding stability dG” value of the first is higher: 1.58 kcal/mol for the first, 1.12 kcal/mol for the second.

First: TTFYTFTDDEEARRAIEELKKRGLTFRYEKHGTTWRVRVD [E3F]
Second: TTMYTFTDDEEARRAIEELKKRGLTFRYEKHGTTWRVRVD [E3M]
The “folding stability dG” value of the first is higher: 2.44 kcal/mol for the first, 2.14 kcal/mol for the second.

First: TTHYTFTDDEEARRAIEELKKRGLTFRYEKHGTTWRVRVD [E3H]
Second: TTLYTFTDDEEARRAIEELKKRGLTFRYEKHGTTWRVRVD [E3L]
The “folding stability dG” value of the first is lower: 1.73 kcal/mol for the first, 2.25 kcal/mol for the second.

Compared with TTAYTFTDDEEARRAIEELKKRGLTFRYEKHGTTWRVRVD [E3A], TTQYTFTDDEEARRAIEELKKRGLTFRYEKHGTTWRVRVD [E3Q] is higher in “folding stability dG” value: 1.12 kcal/mol for the first, 1.47 kcal/mol for the second.

First: TTCYTFTDDEEARRAIEELKKRGLTFRYEKHGTTWRVRVD [E3C]
Second: TTEYTFADDEEARRAIEELKKRGLTFRYEKHGTTWRVRVD [T7A]
The “folding stability dG” value of the first is higher: 2.81 kcal/mol for the first, 1.63 kcal/mol for the second.

Going from TTEYTFGDDEEARRAIEELKKRGLTFRYEKHGTTWRVRVD [T7G] to TTEYTFEDDEEARRAIEELKKRGLTFRYEKHGTTWRVRVD [T7E], the “folding stability dG” value rises from 1.37 kcal/mol to 2.07 kcal/mol.

Compared with TTEYTFCDDEEARRAIEELKKRGLTFRYEKHGTTWRVRVD [T7C], TTEYTFDDDEEARRAIEELKKRGLTFRYEKHGTTWRVRVD [T7D] is lower in “folding stability dG” value: 2.34 kcal/mol for the first, 1.97 kcal/mol for the second.

First: TTEYTFFDDEEARRAIEELKKRGLTFRYEKHGTTWRVRVD [T7F]
Second: KTEYTFTDDEEARRAIEELKKRGLTFRYEKHGTTWRVRVD [T1K]
The “folding stability dG” value of the first is higher: 2.22 kcal/mol for the first, 1.78 kcal/mol for the second.

Going from YTEYTFTDDEEARRAIEELKKRGLTFRYEKHGTTWRVRVD [T1Y] to FTEYTFTDDEEARRAIEELKKRGLTFRYEKHGTTWRVRVD [T1F], the “folding stability dG” value falls from 2.93 kcal/mol to 2.69 kcal/mol.

Compared with LTEYTFTDDEEARRAIEELKKRGLTFRYEKHGTTWRVRVD [T1L], ETEYTFTDDEEARRAIEELKKRGLTFRYEKHGTTWRVRVD [T1E] is lower in “folding stability dG” value: 2 kcal/mol for the first, 1.93 kcal/mol for the second.

First: QTEYTFTDDEEARRAIEELKKRGLTFRYEKHGTTWRVRVD [T1Q]
Second: WTEYTFTDDEEARRAIEELKKRGLTFRYEKHGTTWRVRVD [T1W]
The “folding stability dG” value of the first is lower: 2.04 kcal/mol for the first, 3.2 kcal/mol for the second.

Going from PTEYTFTDDEEARRAIEELKKRGLTFRYEKHGTTWRVRVD [T1P] to ATEYTFTDDEEARRAIEELKKRGLTFRYEKHGTTWRVRVD [T1A], the “folding stability dG” value falls from 2.15 kcal/mol to 2.06 kcal/mol.

Compared with VTEYTFTDDEEARRAIEELKKRGLTFRYEKHGTTWRVRVD [T1V], NTEYTFTDDEEARRAIEELKKRGLTFRYEKHGTTWRVRVD [T1N] is lower in “folding stability dG” value: 2.44 kcal/mol for the first, 1.62 kcal/mol for the second.

Compared with DTEYTFTDDEEARRAIEELKKRGLTFRYEKHGTTWRVRVD [T1D], RTEYTFTDDEEARRAIEELKKRGLTFRYEKHGTTWRVRVD [T1R] is higher in “folding stability dG” value: 1.75 kcal/mol for the first, 1.87 kcal/mol for the second.

Compared with ITEYTFTDDEEARRAIEELKKRGLTFRYEKHGTTWRVRVD [T1I], HTEYTFTDDEEARRAIEELKKRGLTFRYEKHGTTWRVRVD [T1H] is lower in “folding stability dG” value: 2.44 kcal/mol for the first, 2.1 kcal/mol for the second.

Going from GTEYTFTDDEEARRAIEELKKRGLTFRYEKHGTTWRVRVD [T1G] to MTEYTFTDDEEARRAIEELKKRGLTFRYEKHGTTWRVRVD [T1M], the “folding stability dG” value rises from 1.95 kcal/mol to 2.21 kcal/mol.

With STEYTFTDDEEARRAIEELKKRGLTFRYEKHGTTWRVRVD [T1S] the “folding stability dG” value was 2.05 kcal/mol.

Variants of: B2
Experiment: as above
Details: PBS, room temperature

First: SIEEEIKKAEEAKEKGKTFIHGDFVATTEELLDELLKRLRKWL [K42W]
Second: SIEEEIKKAEEAKEKGKTFIHGDFVATTEELLDELLKRLRKYL [K42Y]
The “folding stability dG” value of the first is higher: 1.83 kcal/mol for the first, 1.5 kcal/mol for the second.

Going from SIEEEIKKAEEAKEKGKTFIHGDFVATTEELLDELLKRLRKKT [L43T] to SIEEEIKKAEEAKEKGKTFIHGDFVATTEELLDELLKRLRKKH [L43H], the “folding stability dG” value rises from 0.533 kcal/mol to 0.788 kcal/mol.

Going from SIEEEIKKAEEAKEKGKTFIHGDFVATTEELLDELLKRLRKKW [L43W] to SIEEEIKKAEEAKEKGKTFIHGDFVATTEELLDELLKRLRKKM [L43M], the “folding stability dG” value falls from 1.06 kcal/mol to 0.858 kcal/mol.

First: SIEEEIKKAEEAKEKGKTFIHGDFVATTEELLDELLKRLRKKN [L43N]
Second: SIEEEIKKAEEAKEKGKTFIHGDFVATTEELLDELLKRLRKKF [L43F]
The “folding stability dG” value of the first is lower: 0.566 kcal/mol for the first, 1.05 kcal/mol for the second.

Compared with SIEEEIKKAEEAKEKGKTFIHGDFVATTEELLDELLKRLRKKQ [L43Q], SIEEEIKKAEEAKEKGKTFIHGDFVATTEELLDELLKRLRKKP [L43P] is lower in “folding stability dG” value: 0.837 kcal/mol for the first, 0.431 kcal/mol for the second.

Compared with SIEEEIKKAEEAKEKGKTFIHGDFVATTEELLDELLKRLRKKI [L43I], SIEEEIKKAEEAKEKGKTFIHGDFVATTEELLDELLKRLRKKV [L43V] is lower in “folding stability dG” value: 0.768 kcal/mol for the first, 0.562 kcal/mol for the second.

First: SIEEEIKKAEEAKEKGKTFIHGDFVATTEELLDELLKRLRKKD [L43D]
Second: SIEEEIKKAEEAKEKGKTFIHGDFVATTEELLDELLKRLRKKR [L43R]
The “folding stability dG” value of the first is lower: 0.207 kcal/mol for the first, 1.14 kcal/mol for the second.

First: SIEEEIKKAEEAKEKGKTFIHGDFVATTEELLDELLKRLRKKY [L43Y]
Second: SIEEEIKKAEEAKEKGKTFIHGDFVATTEELLDELLKRLRKKG [L43G]
The “folding stability dG” value of the first is higher: 0.992 kcal/mol for the first, 0.444 kcal/mol for the second.

Compared with SIEEEIKKAEEAKEKGKTFIHGDFVATTEELLDELLKRLRKKS [L43S], SIEEEIKKAEEAKEKGKTFIHGDFVATTEELLDELLKRLRKKE [L43E] is lower in “folding stability dG” value: 0.524 kcal/mol for the first, 0.224 kcal/mol for the second.

Compared with SIEEEIKKAEEAKEKGKTFIHGDFVATTEELLDELLKRLRKKA [L43A], SIEEEIKKAEEAKEKGKTFIHGDFVATTEELLDELLKRLRKKK [L43K] is higher in “folding stability dG” value: 0.591 kcal/mol for the first, 0.822 kcal/mol for the second.

With SIEEEIKKAEEAKEKGKTFIHGDFVATTEELLDELLKRLRKKC [L43C] the “folding stability dG” value was 1.31 kcal/mol.

— the MegaScale stability set (Tsuboyama et al. 2023)
